Data from patent US20050244862A1.

Tests used:
Assay in all cases: cell-based or functional assay
Gq-i5 chimeric G-protein = target: Gq-i5 chimeric G-protein
Gq-o5 chimeric G-protein = target: Gq-o5 chimeric G-protein
NK2 tachykinin receptor = NK2 tachykinin receptor (UniProt P21452)
NK3 tachykinin receptor = target: T1, NK3 tachykinin receptor (UniProt P29371)
T1 sequence (looked up): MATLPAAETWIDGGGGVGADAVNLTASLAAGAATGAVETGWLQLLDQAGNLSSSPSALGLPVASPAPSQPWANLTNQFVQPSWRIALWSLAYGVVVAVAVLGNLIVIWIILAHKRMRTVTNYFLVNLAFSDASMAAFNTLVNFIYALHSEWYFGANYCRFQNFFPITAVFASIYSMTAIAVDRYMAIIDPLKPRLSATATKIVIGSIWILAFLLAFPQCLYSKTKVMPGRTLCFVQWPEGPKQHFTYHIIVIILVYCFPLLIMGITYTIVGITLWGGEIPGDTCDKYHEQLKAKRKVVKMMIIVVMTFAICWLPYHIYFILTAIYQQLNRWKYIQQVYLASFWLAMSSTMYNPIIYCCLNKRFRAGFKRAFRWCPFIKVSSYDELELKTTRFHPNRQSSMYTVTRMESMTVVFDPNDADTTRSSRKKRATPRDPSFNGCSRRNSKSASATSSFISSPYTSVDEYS

NK1 tachykinin receptor = NK1 tachykinin receptor (UniProt P25103)
Sequence of NK1 tachykinin receptor (P25103 whole entry): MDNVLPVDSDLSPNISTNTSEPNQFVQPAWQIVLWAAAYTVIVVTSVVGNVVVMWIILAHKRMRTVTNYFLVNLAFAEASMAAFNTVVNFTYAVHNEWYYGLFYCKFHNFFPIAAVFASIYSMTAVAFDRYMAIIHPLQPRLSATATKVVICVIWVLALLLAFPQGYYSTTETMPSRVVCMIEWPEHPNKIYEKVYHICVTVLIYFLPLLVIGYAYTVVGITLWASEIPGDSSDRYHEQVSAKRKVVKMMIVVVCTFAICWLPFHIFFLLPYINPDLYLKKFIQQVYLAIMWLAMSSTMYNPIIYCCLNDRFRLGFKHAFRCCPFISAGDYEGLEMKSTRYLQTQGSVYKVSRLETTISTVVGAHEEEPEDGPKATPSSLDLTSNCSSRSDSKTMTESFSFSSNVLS

Insulin receptor = target: Insulin receptor

Sequence of m4 muscarinic receptor (P08173 whole entry): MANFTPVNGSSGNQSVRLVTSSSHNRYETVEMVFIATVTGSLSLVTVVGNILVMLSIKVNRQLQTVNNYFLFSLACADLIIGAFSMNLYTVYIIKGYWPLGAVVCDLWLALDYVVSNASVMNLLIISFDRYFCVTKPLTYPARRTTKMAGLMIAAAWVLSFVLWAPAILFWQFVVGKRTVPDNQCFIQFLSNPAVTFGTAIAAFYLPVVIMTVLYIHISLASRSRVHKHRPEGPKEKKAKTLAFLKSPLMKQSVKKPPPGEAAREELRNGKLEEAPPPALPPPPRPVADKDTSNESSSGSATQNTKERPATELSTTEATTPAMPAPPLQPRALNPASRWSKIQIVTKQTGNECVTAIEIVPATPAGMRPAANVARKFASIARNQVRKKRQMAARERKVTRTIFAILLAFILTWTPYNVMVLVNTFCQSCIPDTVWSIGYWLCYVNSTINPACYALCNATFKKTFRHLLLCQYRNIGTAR
Sequence of NK2 tachykinin receptor (P21452 whole entry): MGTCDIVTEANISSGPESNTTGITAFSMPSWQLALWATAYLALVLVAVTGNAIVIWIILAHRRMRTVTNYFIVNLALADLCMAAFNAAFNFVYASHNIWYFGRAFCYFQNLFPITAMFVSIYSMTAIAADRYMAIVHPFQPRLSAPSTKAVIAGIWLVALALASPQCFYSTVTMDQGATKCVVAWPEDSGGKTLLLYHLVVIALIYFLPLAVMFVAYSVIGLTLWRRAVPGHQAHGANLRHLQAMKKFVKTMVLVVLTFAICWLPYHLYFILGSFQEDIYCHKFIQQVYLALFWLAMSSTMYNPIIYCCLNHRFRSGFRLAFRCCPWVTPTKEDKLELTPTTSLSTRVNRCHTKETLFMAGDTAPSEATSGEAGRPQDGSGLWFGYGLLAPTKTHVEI

“m4 muscarinic receptor (from UniProt P08173 1-479)” showed an ED50 of carbachol for the β-galactosidase response of cells co-expressing m4 and Gq-i5 (Gq-i5 chimeric G-protein) of 37 nM and an ED50 of carbachol for the β-galactosidase response of cells co-expressing m4 and Gq-o5 (Gq-o5 chimeric G-protein) of 32 nM.

In the case of “substance P (from UniProt P20366 58-68) (peptide)”, the EC50, amplification assay (β-galactosidase), Single Receptor Format (NK2 tachykinin receptor) is reported as 65 nM and the EC50, amplification assay (β-galactosidase), Single Receptor Format (NK3 tachykinin receptor) is reported as 164 nM.

Substance “neurokinin A (from UniProt P20366 98-107) (peptide)” has an EC50, amplification assay (β-galactosidase), Single Receptor Format (NK1 tachykinin receptor) of 14 nM and an EC50, amplification assay (β-galactosidase), Single Receptor Format (NK3 tachykinin receptor) of 11 nM.

Insulin (ligand) showed an EC50, amplification assay (β-galactosidase), Single Receptor Format (Insulin receptor) of 0.08 nM.
